Data as given in patent US20100196403A1, “ANTIBODY CONJUGATES FOR CIRCUMVENTING MULTI-DRUG RESISTANCE” (priority 2007, published 2010).

Assays:
HU-2 cells = experiment: Cell viability of HU-2 cells with toxic drugs (Trypan blue exclusion); format: cell-based, mouse; conditions: 2 μg/ml Adriamycin or 1 μg/ml colchicine, FIG. 6A
Protocol: T-25 cells (Hochman et al, 1984), derived from S49 mouse lymphoma, were transduced with a retrovirus containing the human MDR1 cDNA, as previously described (Galski et al. 1995). The resultant cells (HU-2) are cross-resistant to colchicine, doxorubicin, vinblastine and actinomycin D, and their resistance to colchicine is reversed by verapamil. T-cell lymphoma derived cell lines were grown in Dulbecco's modified eagle medium (DMEM) supplemented with 10% heat-inactivated horse serum, at 37° C. in a humidified atmosphere containing 5% CO2.
To measure the sensitivity of HU-2 cells to toxic drugs, 1×10^5 cells per well were incubated with 10 μg of the conjugate for 4 hrs. 2 μg/ml of Adriamycin or 1 μg/ml of colchicine was then added and the cells incubated for a further 96 hrs. Stocks were prepared in DMSO. The maximal final concentration of DMSO in the assays was 0.5% (v/v). After 96 h, the cells were checked by light microscopy and viable cells were counted by Trypan blue exclusion.

[1] = molecular target: human MDR1 (P-gp) expressed in HU-2 mouse lymphoma cells (human) (UniProt P08183); experiment: cell-based or functional assay
ABCB1 transporter = molecular target: T1, ABCB1 transporter (Cricetulus griseus, UniProt P21448); format: cell-based, Chinese hamster
T1 construct: In drug resistant cells, calcein-AM is extruded by the ABCB1 transporter; endogenous in cells; host or cells: CHO cell clone CH(R)B30 (colchicine-resistant)
T1 sequence (P21448 whole entry): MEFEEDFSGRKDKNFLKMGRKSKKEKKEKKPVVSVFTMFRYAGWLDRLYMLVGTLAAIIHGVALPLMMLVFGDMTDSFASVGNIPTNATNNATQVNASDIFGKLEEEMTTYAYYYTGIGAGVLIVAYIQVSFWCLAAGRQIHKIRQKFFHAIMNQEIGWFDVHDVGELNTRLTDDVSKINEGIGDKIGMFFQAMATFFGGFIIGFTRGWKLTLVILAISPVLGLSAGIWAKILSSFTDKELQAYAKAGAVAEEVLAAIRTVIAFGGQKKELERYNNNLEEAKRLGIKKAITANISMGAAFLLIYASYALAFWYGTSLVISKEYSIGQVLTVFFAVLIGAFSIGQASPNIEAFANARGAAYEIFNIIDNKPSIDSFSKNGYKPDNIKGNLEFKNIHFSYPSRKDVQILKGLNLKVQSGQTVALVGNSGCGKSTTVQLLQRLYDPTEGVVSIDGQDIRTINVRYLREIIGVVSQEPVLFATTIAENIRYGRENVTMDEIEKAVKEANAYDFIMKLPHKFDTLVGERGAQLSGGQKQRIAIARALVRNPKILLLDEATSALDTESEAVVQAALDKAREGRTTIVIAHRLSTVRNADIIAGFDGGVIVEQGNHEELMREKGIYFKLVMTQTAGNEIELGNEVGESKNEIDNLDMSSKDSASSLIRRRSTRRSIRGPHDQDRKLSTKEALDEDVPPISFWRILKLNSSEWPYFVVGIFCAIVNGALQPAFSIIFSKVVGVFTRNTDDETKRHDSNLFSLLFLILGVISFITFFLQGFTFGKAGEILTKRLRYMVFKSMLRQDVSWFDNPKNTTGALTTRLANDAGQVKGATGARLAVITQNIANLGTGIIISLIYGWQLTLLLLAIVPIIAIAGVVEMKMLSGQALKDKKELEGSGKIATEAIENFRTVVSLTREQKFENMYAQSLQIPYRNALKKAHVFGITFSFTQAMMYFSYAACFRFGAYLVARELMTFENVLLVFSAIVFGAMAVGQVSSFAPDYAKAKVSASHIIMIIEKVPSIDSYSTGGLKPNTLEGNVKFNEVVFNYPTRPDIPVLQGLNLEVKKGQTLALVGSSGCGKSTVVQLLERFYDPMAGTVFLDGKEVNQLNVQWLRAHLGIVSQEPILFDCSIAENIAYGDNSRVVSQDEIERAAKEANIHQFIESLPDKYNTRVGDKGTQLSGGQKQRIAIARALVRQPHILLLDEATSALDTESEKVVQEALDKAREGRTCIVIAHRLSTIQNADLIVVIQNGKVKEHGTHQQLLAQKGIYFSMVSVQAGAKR
Protocol: Cells were grown in alpha-MEM medium supplemented with 10% Fetal Calf Serum (FCS), penicillin 50 U/ml, streptomycin 50 μg/ml, and ceftazidim 50 μg/ml. For propagation of the clone, colchicine was added to this medium to a final concentration of 20 μg/ml.
Cells were diluted in alpha MEM to about 1.5×10^6 cells/ml. Volumes of 1 ml were distributed to 2 ml Eppendorf tubes. […] The capped tubes were positioned with their longitudinal axes inclined to 45° on a roller platform and were rotated in the incubator. The cells were incubated with conjugates, proteins, or peptides, respectively, at various concentrations and for various times. […] Calcein-AM was added to a final concentration of 1 μM or 2 μM at least 30 min before the end of incubation. Calcein-AM, a substrate of ABCB1, is a hydrophobic non-fluorescent substance that easily enters cells. Once in the cytoplasm, calcein-AM is hydrolysed, and the ensuing fluorescent calcein is retained within the cells. In drug resistant cells, calcein-AM is extruded by the ABCB1 transporter. […] All vials were stopped by addition of ice-cold medium and then put on ice for subsequent flow cytometry (beginning about 1 h after the end of incubation). […] 100,000 cells, in a few experiments 50,000 cells per vial were counted. […] The median channel xM of the y distribution and yM, the number of cells in xM, were determined.

Chain of human MDR1 (P-gp) expressed in HU-2 mouse lymphoma cells (human) (P08183 whole entry): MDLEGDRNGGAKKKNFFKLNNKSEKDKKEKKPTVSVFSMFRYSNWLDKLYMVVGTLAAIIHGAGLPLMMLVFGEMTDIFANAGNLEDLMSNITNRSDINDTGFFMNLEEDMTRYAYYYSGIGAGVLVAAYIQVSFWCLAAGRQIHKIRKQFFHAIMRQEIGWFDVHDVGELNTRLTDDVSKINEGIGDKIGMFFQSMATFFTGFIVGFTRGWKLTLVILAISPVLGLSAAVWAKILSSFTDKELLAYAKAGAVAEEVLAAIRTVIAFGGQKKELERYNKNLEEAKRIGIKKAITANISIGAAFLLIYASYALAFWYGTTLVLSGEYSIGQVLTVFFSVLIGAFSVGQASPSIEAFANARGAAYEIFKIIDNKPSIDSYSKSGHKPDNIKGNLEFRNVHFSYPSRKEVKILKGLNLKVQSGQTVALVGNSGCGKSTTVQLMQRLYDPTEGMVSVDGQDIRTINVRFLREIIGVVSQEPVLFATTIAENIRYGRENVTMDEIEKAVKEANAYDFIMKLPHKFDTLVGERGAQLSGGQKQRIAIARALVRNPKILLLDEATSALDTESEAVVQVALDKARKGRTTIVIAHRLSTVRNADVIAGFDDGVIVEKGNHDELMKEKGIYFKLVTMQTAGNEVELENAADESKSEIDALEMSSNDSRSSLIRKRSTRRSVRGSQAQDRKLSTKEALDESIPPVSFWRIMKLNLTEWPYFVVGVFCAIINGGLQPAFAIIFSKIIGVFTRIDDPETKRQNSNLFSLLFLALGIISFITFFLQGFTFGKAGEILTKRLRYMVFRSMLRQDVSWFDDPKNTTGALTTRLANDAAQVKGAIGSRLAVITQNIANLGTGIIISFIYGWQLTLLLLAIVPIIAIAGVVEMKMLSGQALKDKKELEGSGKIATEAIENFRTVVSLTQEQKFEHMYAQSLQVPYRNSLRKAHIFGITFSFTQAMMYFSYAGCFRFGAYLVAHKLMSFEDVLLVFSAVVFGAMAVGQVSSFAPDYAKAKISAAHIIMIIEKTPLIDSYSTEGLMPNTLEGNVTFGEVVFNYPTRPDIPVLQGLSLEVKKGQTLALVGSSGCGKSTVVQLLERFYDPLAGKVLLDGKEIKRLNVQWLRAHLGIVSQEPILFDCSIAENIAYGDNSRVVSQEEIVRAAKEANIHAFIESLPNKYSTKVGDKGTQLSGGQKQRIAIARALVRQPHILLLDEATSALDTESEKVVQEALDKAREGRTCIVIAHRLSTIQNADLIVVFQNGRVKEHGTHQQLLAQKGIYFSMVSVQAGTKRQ

Compound: COc1cccc2c1C(=O)c1c(O)c3c(c(O)c1C2=O)C[C@@](O)(C(=O)CO)C[C@@H]3O[C@H]1C[C@H](N)[C@H](O)[C@H](C)O1 [adriamycin, doxorubicin]
- viability of HU-2 cells with drug, no conjugate (HU-2 cells): remain viable

Compound: COc1cc2c(c(OC)c1OC)-c1ccc(OC)c(=O)cc1[C@@H](NC(C)=O)CC2 [colchicine]
- viability of HU-2 cells with drug, no conjugate (HU-2 cells): remain viable

Compound: C219-S-S-(37-72)Tat conjugate (Mab C219 linked through PDPH and a disulfide bond to Cys 37 of HIV-1 (37-72)Tat) (antibody)
- cell death of HU-2 cells with Adriamycin 2 µg/ml in the presence of 10 µg conjugate, Trypan blue count after 96 h, normalized to drug without conjugate [1]: 68%
- cell death of HU-2 cells with colchicine 1 µg/ml in the presence of 10 µg conjugate, Trypan blue count after 96 h, normalized to drug without conjugate [1]: 91%

Compound: CFITKALGISYGRKKRRQRRRPPQGSQTHQVSLSKQ [(37-72)Tat]
- shift in the flow cytometry histogram (ABCB1 transporter; 1 μM, 210 min, FIG. 4F): small
- effect on MDR activity (summary of results) (ABCB1 transporter; colchicine-resistant CH(R)B30 cells): only a marginal effect
